Source: patent publication US20250340659A1 (PETMEDIX, published 2025)
Positions count from the first letter of the chain named.

B1: PMX052 (antibody, V domains shown)
VH: EVQLVESGGDLVKPAGSLRLSCVASGFTFSSYSMSWVRQAPEKGLQLVAGISGGGSRTYYSDAVKGRFTISRDNAKNTVYLQMNSLRAEDTAIYYCAKDGGSWAGYNFDYWGQGTLVTVSS
VL: DIVMTQTPPSLSVSPRETASISCKASQSLLHSDGSTYLDWYLQKPGQSPQLLIYLGSNRFTGVSDRFSGSGSGTEFTLRISRVEANDTGVYYCGQGTQLPYTFGQGTELEIK
notes: also called PMX52
B2: PMX039 (antibody)
heavy: EVQLVESGGDLVKPEGSLRLSCVVSGFTFITNDMSWVRQAPGKGLQWVAYITNDGRYTSYTDAVKGRFTISRDNAKNTLYLQMNSLRTEDTAVYYCAKHSSNYYRGRFGMDYWGHGTSLFVSSASTTAPSVFPLAPSCGSTSGSTVALACLVSGYFPEPVTVSWNSGSLTSGVHTFPSVLQSSGLYSLSSMVTVPSSRWPSETFTCNVAHPASKTKVDKPVPKRENGRVPRPPDCPKCPAPESLGGPSVFIFPPKPKDTLLIARTPEVTCVVVDLGREDPEVQISWFVDGKQMQTAKTQPREEQFNGTYRVVSVLPIGHQDWLKGKQFTCKVNHIGLPSPIERTISKARGQAHQPSVYVLPPSREELSKNTVSLTCLIKDFFPPDIDVEWQSNGQQEPESKYRTTPPQLDEDGSYFLYSKLSVDKSRWQRGDTFICAVMHEALHNHYTQKSLSHSPGK
VL: SYVLTQLPSKNVTLKQPAHITCGGDNIGSKSVHWYQQKLGQAPVLIIYYDSTRPTGIPERFSGANSGNTATLTISGALAEDEADYYCQVWDSSASVFGGGTHLTVL
notes: also called PMX39
B3: PMX055 (antibody)
heavy: EVQLEESGGDLVKPEGSLRLSCVVSGFTLSTFGMSWVRQAPGKGLQWVAYISSDGRSTSYTDAVKGRFTISRDNAKNTLYLQMNSLRTDDTAVYYCVQLGRGFGIDYWGHGTSLFVSSASTTAPSVFPLAPSCGSTSGSTVALACLVSGYFPEPVTVSWNSGSLTSGVHTFPSVLQSSGLYSLSSMVTVPSSRWPSETFTCNVAHPASKTKVDKPVPKRENGRVPRPPDCPKCPAPESLGGPSVFIFPPKPKDTLLIARTPEVTCVVVDLGREDPEVQISWFVDGKQMQTAKTQPREEQFNGTYRVVSVLPIGHQDWLKGKQFTCKVNHIGLPSPIERTISKARGQAHQPSVYVLPPSREELSKNTVSLTCLIKDFFPPDIDVEWQSNGQQEPESKYRTTPPQLDEDGSYFLYSKLSVDKSRWQRGDTFICAVMHEALHNHYTQKSLSHSPGK
VL: B2 VL with K15R, T21P, S51T, T52S, S95A
notes: also called PMX55
B4: PMX057 (antibody, V domains shown)
VH: EVQLVESGGDLVKPEGSLRLSCVVSGFTFNNYGMSWVRQAPGKGLQWVAYISIDGRSTSYTDAVKGRFTISRDNAKNTLYLHINSLRTEDTAVYYCTKLGRGFTFGYWGQGTLVTVSS
VL: B2 VL with V44A, T52S, A94V
notes: also called PMX57
B5: PMX050 (antibody, V domains shown)
VH: EVQLVESGGDLVKPEGSLRLSCVVSGFTFTTYDMSWVRQAPGKGLQWVAYITNDGRITTYTDAVKGRFTISRDNAKNTLYLQMNSLRTVDTGVYYCARHSSSWSRGRFGLDYWGHGTSVFVSS
VL: B2 VL with S29R, S31G, T52S, S92N
notes: also called PMX50
B6: PMX056 (antibody)
heavy: B3 heavy with E5V, T31S, F32Y, K43R, T88S, D89E, I105M
VL: B2 VL with L45V, S95A
notes: also called PMX56
B7: PMX058 (antibody, V domains shown)
VH: B4 VH with G26D, N30G, N31S, I53S, Y80H, H82Q, I83M, T97A, T104A
VL: B2 VL with T52N
notes: also called PMX58
B8: PMX047 (antibody, V domains shown)
VH: EVQLVESGGDLVKPGGSLRLSCVASGFIFSSYSMSWVRQAPEKGLQLVAGINSAGSSTYYTDAVKGRFTISRDNAKNTVYLQMNSLRAEDTAIYYCAKRWVFDFWGQGTLVTVSS
VL: HIVMTQTPLSLSVSPGEPASISCKASQSLLLSYGNTYLYWFRQKPGQSPQRLIYKVSNRDPGVPDRFSGSGSGTDFTLRISRVEADDAGVYYCGQGIQDPFTFGQGTKLEIK
notes: also called PMX47
B9: PMX053 (antibody, V domains shown)
VH: B8 VH with G15A, I28T, F104Y
VL: B8 VL with H1D, L30P, L31H, Y33L, V90I
notes: also called PMX53
B10: PMX054 (antibody, V domains shown)
VH: EVHLVESGGDLVKPEGSLRLSCVVSGFTFSSYDMSWVRQAPGKGLQWVAYISSDGRSTGYTDAVKGRFTISRDNAKKTLYLQMNSLRSEDTAVYYCAKETPRWGFDYWGQGTLVTVSS
VL: SYVLTQLPSVSVTLRQTARITCGGASIGSKNVYWHQQKLGQAPLLIIYDDSSRPSGIPERFSGANSGNTATLTISGALAEDEADYYCQVWDSSTSVFGGGTHLTVL
notes: also called PMX54
B11: PMX051 (antibody, V domains shown)
VH: EVQLVESGGDLVKPGGSLRLSCVASGFSFNTYHMNWVRQAPGKGLHWVAFINSDGGGTSYADTVKGRFTISRDYAKNTLYLQMNSLRAEDTAVYYCVSGSIWTHFDYWGQGTLVTVSS
VL: SYVLTQLPSVSMTLRQTAHITCGGDIIGSKSVYWYQQKLGQAPVLIIYRDTNRPTGIPERFSGASSGNTATLTISGALAEDEADYYCQVWDSSTQAVFGGGTHLTVL
notes: also called PMX51
B12: PMX105 (antibody, V domains shown)
VH: B11 VH with S28T, D54G, G56S, A61E, K65Q, V97A, S98C
VL: B11 VL with M12V, L45M, T51N, A77S, S93R, V97L

Target: T1, recombinant canine OX40L ECD-TNCc-HIS protein (canine)
T1 construct: also called Trimeric OX40L probe (HIS tag); trimeric canine OX40L
T1 chain: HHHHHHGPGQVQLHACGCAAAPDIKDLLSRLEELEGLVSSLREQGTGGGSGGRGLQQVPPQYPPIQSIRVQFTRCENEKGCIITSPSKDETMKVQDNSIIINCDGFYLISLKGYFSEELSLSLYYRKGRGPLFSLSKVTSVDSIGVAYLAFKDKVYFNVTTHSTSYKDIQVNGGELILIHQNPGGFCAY
Assay: SPR Koff (kd1)
Experimental: (§1) Affinity (Kd) of OX40L antibodies is measured by SPR, using a recombinant canine OX40L ECD-TNCc-HIS protein (Seq ID 811) as the capturing agent (FIG. 5B).
(§2) Functional affinity is determined using a Biakore 8K (Cytiva). in brief, purified OX40L ECD-TNCc-HIS protein is covalently bound at low density to the surface of a CM5 sensor chip (Cytiva) by amine coupling, using the manufacturer's recommended protocol. Candidate antibodies are subsequently passed across the chip surface at a range of concentrations and affinity determined using the dedicated software (Biacore Insight Evaluation Software). Curves were fitted using a bivalent analyte binding model.

Row | Binder | koff [s⁻¹]
1 | B1 | 0.00276
2 | B2 | 0.0128
3 | B3 | 0.00366
4 | B4 | 0.00472
5 | B5 | 0.000525
6 | B6 | 0.0148
7 | B7 | 0.0144
8 | B8 | 0.000451
9 | B9 | 0.000587
10 | B10 | 0.0345
11 | B11 | 0.00119
12 | B12 | 0.00174

Target: T1, recombinant canine OX40L ECD-TNCc-HIS …
Assay: SPR Koff (kd2)
Experimental: as §1, §2

Row | Binder | koff [s⁻¹]
13 | B1 | 0.0725
14 | B2 | 0.00139
15 | B3 | 0.401
16 | B4 | 0.22
17 | B5 | 0.161
18 | B6 | 0.000624
19 | B7 | 0.323
20 | B8 | 1.5e-05
21 | B9 | 0.565
22 | B10 | 0.0848
23 | B11 | 4.81
24 | B12 | 1.23

Target: T2, canine OX40L, full length membrane form, expressed on HEK293 cells (canine)
T2 chain: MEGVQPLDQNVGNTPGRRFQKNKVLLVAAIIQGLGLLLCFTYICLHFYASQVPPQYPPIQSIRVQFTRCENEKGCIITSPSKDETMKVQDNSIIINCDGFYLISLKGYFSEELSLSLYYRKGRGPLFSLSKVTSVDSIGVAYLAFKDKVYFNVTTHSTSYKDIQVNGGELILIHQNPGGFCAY
Assay: cell-based or functional assay

Row | Binder | % Signal Inhibition Average [%] | % Signal Inhibition Rep1 [%] | % Signal Inhibition Rep2 [%] | % Signal Inhibition Rep3 [%]
25 | B1 | 22.2 | 15.7 | 29.2 | 21.7
26 | B2 | 80.6 | 81.7 | 86.6 | 73.6
27 | B3 | 52.8 | 48.3 | 57.7 | 52.3
28 | B4 | 66 | 52.1 | 72 | 73.9
29 | B5 | 76.6 | 68.7 | 83.3 | 77.6
30 | B6 | 44.3 | 27.3 | 57 | 48.5
31 | B7 | 29.1 | 12.4 | 35.3 | 39.5
32 | B8 | 61.6 | 49.3 | 73.1 | 62.3
33 | B9 | 39.7 | 24.5 | 45.8 | 48.9
34 | B10 | 32 | 21 | 32.8 | 42
35 | B11 | 84.1 | 82.2 | 75.3 | 94.7
36 | B12 | 84.2 | 85.4 | 94.8 | 72.5

Target: T1, recombinant canine OX40L ECD-TNCc-HIS …
Assay: SPR KD1, bivalent analyte model
Experimental: as §1, §2

Row | Binder | Kd [nM]
37 | B1 | 12
38 | B2 | 46.4
39 | B3 | 5.43
40 | B4 | 1.29
41 | B5 | 1.31
42 | B6 | 61
43 | B7 | 8.46
44 | B8 | 12.5
45 | B9 | 3.4
46 | B10 | 5.76
47 | B11 | 7.92
48 | B12 | 17.6

Target: T2, canine OX40L, full length membrane …
Assay: flow cytometry, OX40L HEK minus WT HEK
How it was run: (§3)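 CHO supernatants at 1, 5 or 10 μg/ml in PBS/3% FBS incubated 30′ on ice with cells surface-expressing canine OX40L. Bound antibody detected with fluorescent anti-canine Fc secondary (1:1000, 30 min, dark) and measured by flow cytometry, with parental WT HEK signal subtracted where stated.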

Row | Binder | GEO mean difference
49 | B1 | 734000
50 | B2 | 1.49e+06
51 | B3 | 3.23e+06
52 | B4 | 3.29e+06
53 | B5 | 3.06e+06
54 | B6 | 3.13e+06
55 | B7 | 3.31e+06
56 | B8 | 1.92e+06
57 | B9 | 3e+06
58 | B10 | 3.24e+06
59 | B11 | 3.92e+06
60 | B12 | 580000

Target: T2, canine OX40L, full length membrane …
Assay: flow cytometry
How it was run: as §3

Row | Binder | GEO mean OX40L expressing HEK
61 | B1 | 765000
62 | B2 | 1.52e+06
63 | B3 | 3.26e+06
64 | B4 | 3.32e+06
65 | B5 | 3.08e+06
66 | B6 | 3.16e+06
67 | B7 | 3.34e+06
68 | B8 | 1.95e+06
69 | B9 | 3.03e+06
70 | B10 | 3.27e+06
71 | B11 | 3.94e+06
72 | B12 | 584000
